Measurements as given in the RNAGym collection of RNA variant scans (doi:10.1093/nar/gkz1192).

B1: CPEB3 Ribozyme (parent)
chain: UAACAGGGGGCCACAGCAGAAGCGUUCACGUCGCAGCCCCUGUCAGAUUCUGGUGAAUCUGCGAAUUCUGCUGUAUAUCUC

Variants of: B1
Experiment: self-cleavage, relative activity (ratio to wild type); higher = more cleavage; in vitro, sequencing
Summary of the method: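 Relative activity compares each variant's cleaved/total read fraction with that of the unmutated ribozyme. To get these fractions, barcoded CPEB3 ribozyme libraries from rounds of error-prone PCR were transcribed with T7 RNA polymerase for 5 hours at 37°C and then given 15 min of DNase I treatment before EDTA was added. The RNAs were reverse transcribed with template switching and sequenced on Illumina, and DNA sequencing linked barcodes to variants. A minimum of 5 reads applied, and three batches were averaged.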

Variant	self-cleavage
UAACAGGGGGCCACAGCAGAAGCGUACACGUCGCAGCCCCUGUCAGAUUCUGGUGAUUCUGCGAAUUCUGCUGUAUAUCUC [U26A A57U]	0.62
UAACAGGGGGCCACAGCAGAAGCGUACACGUCGCAGCCCCUGUCAGAUUCUGGUGAGUCUGCGAAUUCUGCUGUAUAUCUC [U26A A57G]	0.78
UAACAGGGGGCCACAGCAGAAGCGUAGACGUCGCAGCCCCUGUCAGAUUCUGGUGAAUCUGCGAAUUCUGCUGUAUAUCUC [U26A C27G]	0.12
UAACAGGGGGCCACAGCAGAAGCGUAAACGUCGCAGCCCCUGUCAGAUUCUGGUGAAUCUGCGAAUUCUGCUGUAUAUCUC [U26A C27A]	0.31
UAACAGGGGGCCACAGCAGAAGCGUACACGUCGCAGCCCCUGUCAGAUUCUGGUGAAUCUGCGAAUUCUGCUGUAUAUCUC [U26A]	0.89
UAACAGGGGGCCACAGCAGAAGCGGUCACGUCGCAGCCCCUGUCAGAUUCUGGUGAAUCUGCGAAUUCUGCUGUAUAUCCC [U25G U80C]	0.37
UAACAGGGGGCCACAGCAGAAGCGGUCACGUCGCAGCCCCCGUCAGAUUCUGGUGAAUCUGCGAAUUCUGCUGUAUAUCUC [U25G U41C]	0.4
UAACAGGGGGCCACAGCAGAAGCGGUCACGUCGCAGCCCCGGUCAGAUUCUGGUGAAUCUGCGAAUUCUGCUGUAUAUCUC [U25G U41G]	0.43
UAACAGGGGGCCACAGCAGAAGCGGUCACGUCGCAGCCCCAGUCAGAUUCUGGUGAAUCUGCGAAUUCUGCUGUAUAUCUC [U25G U41A]	0.19
UAACAGGGGGCCACAGCAGAAGCGGUCACGUCGCAGCCCCUGUCAGAUUCUGGUGAAUCUGCGAACUCUGCUGUAUAUCUC [U25G U66C]	0.23
UAACAGGGGGCCACAGCAGAAGCGGUCACGUCGCAGCCCCUGUCAGAUUCUGGUGAAUCUGCGAAUACUGCUGUAUAUCUC [U25G U67A]	0.22
UAACAGGGGGCCACAGCAGAAGCGGUCACGUCGCAGCCCCUGUCAGAUUCUGGUGAAUCUGCGAAUGCUGCUGUAUAUCUC [U25G U67G]	0.19
UAACAGGGGGCCACAGCAGAAGCGUACACGUCGCAGCCCCUGUCGGAUUCUGGUGAAUCUGCGAAUUCUGCUGUAUAUCUC [U26A A45G]	0.69
UAACAGGGGGCCACAGCAGAAGCGUACACGUCGCAGCCCCUGUCUGAUUCUGGUGAAUCUGCGAAUUCUGCUGUAUAUCUC [U26A A45U]	0.42
UAACAGGGGGCCACAGCAGAAGCGUACACGUCGCAGCCCCUGUCCGAUUCUGGUGAAUCUGCGAAUUCUGCUGUAUAUCUC [U26A A45C]	0.21
UAACAGGGGGCCACAGCAGAAGCGGUCACGUCGCAGCCCCUGUCAGAUUCUGGCGAAUCUGCGAAUUCUGCUGUAUAUCUC [U25G U54C]	0.43
UAACAGGGGGCCACAGCAGAAGCGGUCACGUCGCAGCCCCUGUCAGAUUCUGGAGAAUCUGCGAAUUCUGCUGUAUAUCUC [U25G U54A]	0.49
UAACAGGGGGCCACAGCAGAAGCGGUCACGUCGCAGCCCCUGUCAGAUUCUGGUGAAUCAGCGAAUUCUGCUGUAUAUCUC [U25G U60A]	0.19
UAACAGGGGGCCACAGCAGAAGCGGUCACGUCGCAGCCCCUGUCAGAUUCUGGUGAAUCCGCGAAUUCUGCUGUAUAUCUC [U25G U60C]	0.24
UAACAGGGGGCCACAGCAGAAGCGUACACGUGGCAGCCCCUGUCAGAUUCUGGUGAAUCUGCGAAUUCUGCUGUAUAUCUC [U26A C32G]	0.13
UAACAGGGGGCCACAGCAGAAGCGUACACGUAGCAGCCCCUGUCAGAUUCUGGUGAAUCUGCGAAUUCUGCUGUAUAUCUC [U26A C32A]	0.16
UAACAGGGGGCCACAGCAGAAGCGGUCACGUCGCAGCCCCUGUCAGAUUCUGGUGAAUCUGCGAAUUCCGCUGUAUAUCUC [U25G U69C]	0.24
UAACAGGGGGCCACAGCAGAAGCGGUCACGUCGCAGCCCCUGUCAGAUUCUGGUGAAUCUGCGAAUUCAGCUGUAUAUCUC [U25G U69A]	0.15

Variant	self-cleavage
UAACAGGGGGCCACAGCAGAAGCGUACACGUCGCAGCCCCUGUCAGGUUCUGGUGAAUCUGCGAAUUCUGCUGUAUAUCUC [U26A A47G]	0.84
UAACAGGGGGCCACAGCAGAAGCGUACACGUCGCAGCCCCUGUCAGUUUCUGGUGAAUCUGCGAAUUCUGCUGUAUAUCUC [U26A A47U]	0.58
UAACAGGGGGCCACAGCAGAAGCGGUCACGUCGCAGCCCCUGUCAGAUUCCGGUGAAUCUGCGAAUUCUGCUGUAUAUCUC [U25G U51C]	0.4
UAACAGGGGGCCACAGCAGAAGCGGUCACGUCGCAGCCCCUGUCAGAUUCAGGUGAAUCUGCGAAUUCUGCUGUAUAUCUC [U25G U51A]	0.3
UAACAGGGGGCCACAGCAGAAGCGGUCACGACGCAGCCCCUGUCAGAUUCUGGUGAAUCUGCGAAUUCUGCUGUAUAUCUC [U25G U31A]	0.23
UAACAGGGGGCCACAGCAGAAGCGGUCACGCCGCAGCCCCUGUCAGAUUCUGGUGAAUCUGCGAAUUCUGCUGUAUAUCUC [U25G U31C]	0.19
UAACAGGGGGCCACAGCAGAAGCGGUCACGUCGCAGCCCCUGUCAGAUUCUGGUGAAUCUGCGAAUUCUGCUGUACAUCUC [U25G U76C]	0.52
UAACAGGGGGCCACAGCAGAAGCGGUCACGUCGCAGCCCCUGCCAGAUUCUGGUGAAUCUGCGAAUUCUGCUGUAUAUCUC [U25G U43C]	0.34
UAACAGGGGGCCACAGCAGAAGCGGUCACGUCGCAGCCCCUGACAGAUUCUGGUGAAUCUGCGAAUUCUGCUGUAUAUCUC [U25G U43A]	0.58
UAACAGGGGGCCACAGCAGAAGCGUACACGUCGCAGCCCCUGUCAGAUUCUGGUGAAUCUGCGUAUUCUGCUGUAUAUCUC [U26A A64U]	0.27
UAACAGGGGGCCACAGCAGAAGCGUACACGUCGCAGCCCCUGUCAGAUUCUGGUGAAUCUGCGCAUUCUGCUGUAUAUCUC [U26A A64C]	0.5
UAACAGGGGGCCACAGCAGAAGCGUACACGUCGCAGCCCCUGUCAGAUUCUGGUGAAUCUGCGGAUUCUGCUGUAUAUCUC [U26A A64G]	0.61
UAACAGGGGGCCACAGCAGAAGCGGUCACGUCGCAGCCCCUGUCAGACUCUGGUGAAUCUGCGAAUUCUGCUGUAUAUCUC [U25G U48C]	0.36
UAACAGGGGGCCACAGCAGAAGCGUACACGUCGCAGGCCCUGUCAGAUUCUGGUGAAUCUGCGAAUUCUGCUGUAUAUCUC [U26A C37G]	0.62
UAACAGGGGGCCACAGCAGAAGCGUACACGUCGCAGUCCCUGUCAGAUUCUGGUGAAUCUGCGAAUUCUGCUGUAUAUCUC [U26A C37U]	0.5
UAACAGGGGGCCACAGCAGAAGCGUACACGUCGCCGCCCCUGUCAGAUUCUGGUGAAUCUGCGAAUUCUGCUGUAUAUCUC [U26A A35C]	0.65
UAACAGGGGGCCACAGCAGAAGCGUACACGUCGCUGCCCCUGUCAGAUUCUGGUGAAUCUGCGAAUUCUGCUGUAUAUCUC [U26A A35U]	0.38
UAACAGGGGGCCACAGCAGAAGCGUACACGUCGCGGCCCCUGUCAGAUUCUGGUGAAUCUGCGAAUUCUGCUGUAUAUCUC [U26A A35G]	1.29
UAACAGGGGGCCACAGCAGAAGCGGUCACGUCGCAGCCCCUGUCAGAUUCUGGUGAAUCUGCGAAUUCUGCUGUAUAACUC [U25G U78A]	0.12
UAACAGGGGGCCACAGCAGAAGCGGUCACGUCGCAGCCCCUGUCAGAUUCUGGUGAAUCUGCGAAUUCUGCUGUAUACCUC [U25G U78C]	0.15
UAACAGGGGGCCACAGCAGAAGCGUACACGUCGCAGCCCCUGUCAGAUUCUGGUGAAUCUGCGAGUUCUGCUGUAUAUCUC [U26A A65G]	0.38
UAACAGGGGGCCACAGCAGAAGCGUACACGUCGCAGCCCCUGUCAGAUUCUGGUGAAUCUGCGAUUUCUGCUGUAUAUCUC [U26A A65U]	0.35
UAACAGGGGGCCACAGCAGAAGCGUACACGUCGCAGCCCCUGUCAGAUUCUGGUGAAUCUGCGAAUUCUGCUGUAUGUCUC [U26A A77G]	0.91

Variant	self-cleavage
UAACAGGGGGCCACAGCAGAAGCGUACACGUCGCAGCCCCUGUCAGAUUCUGGUGAAUCUGCGAAUUCUGCUGUAUUUCUC [U26A A77U]	1.03
UAACAGGGGGCCACAGCAGAAGCGUACACGUCGGAGCCCCUGUCAGAUUCUGGUGAAUCUGCGAAUUCUGCUGUAUAUCUC [U26A C34G]	0.41
UAACAGGGGGCCACAGCAGAAGCGUACACGUCGUAGCCCCUGUCAGAUUCUGGUGAAUCUGCGAAUUCUGCUGUAUAUCUC [U26A C34U]	0.29
UAACAGGGGGCCACAGCAGAAGCGUACACGUCGCAGCCCCUGUCAGAUUCUGGUGAAUCUGCGAAUUCUGCUGUGUAUCUC [U26A A75G]	0.69
UAACAGGGGGCCACAGCAGAAGCGUACACGUCGCAGCCCCUGUCAGAUUCUGGUGAAUCUGCGAAUUCUGCUGUUUAUCUC [U26A A75U]	0.9
UAACAGGGGGCCACAGCAGAAGCGGUCACGUCGCAGCCCCUGUCAGAUUCUGGUGAAUCUGCGAAUUCUGCUGCAUAUCUC [U25G U74C]	0.52
UAACAGGGGGCCACAGCAGAAGCGGUCACGUCGCAGCCCCUGUCAGAUUCUGGUGAAUCUGCGAAUUCUGCUGGAUAUCUC [U25G U74G]	0.37
UAACAGGGGGCCACAGCAGAAGCGGUCACGUCGCAGCCCCUGUCAGAUUCUGGUGAAUCUGCGAAUUCUGCCGUAUAUCUC [U25G U72C]	0.26
UAACAGGGGGCCACAGCAGAAGCGGUCACGUCGCAGCCCCUGUCAGAUUCUGGUGAAUCUGCGAAUUCUGCAGUAUAUCUC [U25G U72A]	0.21
UAACAGGGGGCCACAGCAGAAGCGGUCACGUCGCAGCCCCUGUCAGAUUCUGGUGAACCUGCGAAUUCUGCUGUAUAUCUC [U25G U58C]	0.2
UAACAGGGGGCCACAGCAGAAGCGGUCACGUCGCAGCCCCUGUCAGAUUCUGGUGAAACUGCGAAUUCUGCUGUAUAUCUC [U25G U58A]	0.14
UAACAGGGGGCCACAGCAGAAGCGUACACGUCGCAGCUCCUGUCAGAUUCUGGUGAAUCUGCGAAUUCUGCUGUAUAUCUC [U26A C38U]	0.51
UAACAGGGGGCCACAGCAGAAGCGUACACGUCGCAGCACCUGUCAGAUUCUGGUGAAUCUGCGAAUUCUGCUGUAUAUCUC [U26A C38A]	0.27
UAACAGGGGGCCACAGCAGAAGCGUACACGUCGCAGCCCCUGUCAGAUUCUGGUGUAUCUGCGAAUUCUGCUGUAUAUCUC [U26A A56U]	0.4
UAACAGGGGGCCACAGCAGAAGCGUACACGUCGCAGCCCCUGUCAGAUUCUGGUGGAUCUGCGAAUUCUGCUGUAUAUCUC [U26A A56G]	0.68
UAACAGGGGGCCACAGCAGAAGCGUACACGUCGCAGCCCCUGUCAGAUUCUGGUGCAUCUGCGAAUUCUGCUGUAUAUCUC [U26A A56C]	0.49
UAACAGGGGGCCACAGCAGAAGCGUACAGGUCGCAGCCCCUGUCAGAUUCUGGUGAAUCUGCGAAUUCUGCUGUAUAUCUC [U26A C29G]	0.3
UAACAGGGGGCCACAGCAGAAGCGGUCACGUCGCAGCCCCUGUCAGAUACUGGUGAAUCUGCGAAUUCUGCUGUAUAUCUC [U25G U49A]	0.26
UAACAGGGGGCCACAGCAGAAGCGGUCACGUCGCAGCCCCUGUCAGAUCCUGGUGAAUCUGCGAAUUCUGCUGUAUAUCUC [U25G U49C]	0.45
UAACAGGGGGCCACAGCAGAAGCGGCCACGUCGCAGCCCCUGUCAGAUUCUGGUGAAUCUGCGAAUUCUGCUGUAUAUCUC [U25G U26C]	0.33
UAACAGGGGGCCACAGCAGAAGCGUACGCGUCGCAGCCCCUGUCAGAUUCUGGUGAAUCUGCGAAUUCUGCUGUAUAUCUC [U26A A28G]	0.38
UAACAGGGGGCCACAGCAGAAGCGUACUCGUCGCAGCCCCUGUCAGAUUCUGGUGAAUCUGCGAAUUCUGCUGUAUAUCUC [U26A A28U]	0.61
